Source: article PMC5882628, “Development of a Cell-Based Assay to Assess Binding of the proNGF Prodomain to Sortilin” (Cellular and Molecular Neurobiology, 2017)
“Also recorded” adds a separate entry of the source.

Tests used:
[1] = test system: internalization-mutant sortilin; test: GSTpro binding to HEK293 cells expressing internalization-mutant sortilin; type: cell-based, human; conditions: compared with wild type sortilin
Experimental: (§1) HEK 293 cells were grown in DMEM with 10% fetal bovine serum. They were transfected with plasmids either encoding wild type sortilin, or sortilin with a mutation that renders it endocytosis deficient, or an empty control vector according to manufacturer’s instructions using 20 µg lipofectamine (Thermo Fischer Scientific) with 8 µg DNA on […] per 6 cm, poly-lysine coated dish. The cells were initially plated into 24-well dishes after transfection. That intermediate step rendered more uniform cell numbers in the 96-well dishes that were used to run the actual assay. 24 h later, cells were split into black opaque-walled, clear-bottom 96 well dishes at 42000 cells in 80 µl medium/well. […]
(§2) The fixed cells were washed with PBS for 15 min, followed by two 15 min washes with PBS with 0.1% Triton X-100. […] Wells to be evaluated for blocking of the sortilin-GSTpro interaction by antibodies were only stained with an antibody against the pro domain of proNGF in 10% FBS at a dilution of 1:1500 (Millipore (N-term) clone EPI318Y, Rabbit Monoclonal Antibody Catalog Number: #04-1142). […]
(§3) The following day, wells were washed 3 × 15 min with PBS/0.1% Triton X-100. […] Cellular fluorescence was quantified using an array scanner and the “Neuronal Profiler” Bioapplication (Thermo Fisher Scientific) as described below.

sortilin [2] = molecular target: T1, sortilin (Homo sapiens, UniProt Q99523); test: GSTpro binding to wt sortilin-transfected HEK293 cells, staining without detergent permeabilization; type: cell-based; conditions: versus staining with detergent, Fig. 6a vs 6b
T1 construct: They were transfected with plasmids either encoding wild type sortilin, or sortilin with a mutation that renders it endocytosis deficient; expressed in transfected cells; host or cells: HEK 293 cells, transient transfection (lipofectamine)
T1 sequence (Q99523 78-831): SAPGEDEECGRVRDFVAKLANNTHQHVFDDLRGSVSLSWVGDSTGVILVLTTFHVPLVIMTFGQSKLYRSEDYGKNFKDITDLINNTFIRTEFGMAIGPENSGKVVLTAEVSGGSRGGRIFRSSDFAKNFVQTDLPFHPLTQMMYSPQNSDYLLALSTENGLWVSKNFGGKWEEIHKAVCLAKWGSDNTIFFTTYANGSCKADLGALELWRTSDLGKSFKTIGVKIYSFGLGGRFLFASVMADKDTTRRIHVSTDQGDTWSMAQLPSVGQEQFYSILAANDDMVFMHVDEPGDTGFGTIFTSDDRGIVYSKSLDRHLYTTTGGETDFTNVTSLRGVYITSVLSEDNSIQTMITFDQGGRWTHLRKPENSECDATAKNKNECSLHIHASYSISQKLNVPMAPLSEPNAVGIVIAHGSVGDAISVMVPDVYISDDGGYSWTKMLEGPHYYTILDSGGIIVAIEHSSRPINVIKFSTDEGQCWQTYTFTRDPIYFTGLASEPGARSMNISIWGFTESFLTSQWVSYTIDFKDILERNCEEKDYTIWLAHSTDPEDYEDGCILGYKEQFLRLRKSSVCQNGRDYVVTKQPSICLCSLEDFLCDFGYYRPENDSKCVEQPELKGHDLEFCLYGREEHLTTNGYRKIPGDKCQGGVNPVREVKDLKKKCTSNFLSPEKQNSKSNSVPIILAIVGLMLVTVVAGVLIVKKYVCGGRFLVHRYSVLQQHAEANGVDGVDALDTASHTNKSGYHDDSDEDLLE
Experimental: as §1, §2, §3

sortilin [3] = conditions: immobilized sortilin; ref Nykjaer et al. [2004]; read-out: affinity (immobilized sortilin); cited from earlier work
From the text: The assay was also used to screen for blocking of sortilin-GSTpro interaction with compound AF38469, which ...

sortilin [4] = molecular target: T1, sortilin; test: Cell-based assay of GSTpro (NGF prodomain) binding/uptake, wt sortilin-transfected HEK293 cells, sortilin/GST double stain, high content imaging, with detergent; conditions: for signal and assay window, GSTpro compared to proNGF (in words): Fig. 3u, sortilin-transfected cells
Experimental: HEK 293 cells were grown in DMEM with 10% fetal bovine serum. They were transfected with plasmids either encoding wild type sortilin, or sortilin with a mutation that renders it endocytosis deficient, or an empty control vector according to manufacturer’s instructions using 20 µg lipofectamine (Thermo Fischer Scientific) with 8 µg DNA on […] per 6 cm, poly-lysine coated dish. The cells were initially plated into 24-well dishes after transfection. That intermediate step rendered more uniform cell numbers in the 96-well dishes that were used to run the actual assay. 24 h later, cells were split into black opaque-walled, clear-bottom 96 well dishes at 42000 cells in 80 µl medium/well. […] 1 h after that treatment, the medium was replaced with 80 µl medium containing the same antibody, compounds or peptides included in the preincubation medium, plus recombinant GSTpro or proNGF (either purified in-house from recombinant HEK cells or derived from an E.coli expression system at either 0 nM (negative control), or 50 nM, or, in a few instances at 5 or 10 nM. The respective concentrations are indicated in the figures 45 min after adding GSTpro or proNGF, cells were washed twice with prewarmed PBS and fixed in 4% PFA for 20 min at approximately 20 °C.
as §2, §3
Sortilin-GSTpro interaction was also assessed using HEK cell derived cell lines stably expressing sortilin. […]
Images from 96 well dishes were automatically recorded with a Cellomics ArrayScan VTI HCS Reader (Thermo Scientific) using a 10× microscope objective and the build-in standard autofocus method. Fifteen 1024 × 1024 images in 4 channels (Channel 1 and 2: Filter XF5–Hoechst, to detect nuclei and all cells; Channel 3: XF53-Texas Red to detect, e.g., sortilin-positive cells; Channel 4: Filter XF93 – FITC, to detect cells positive, e.g., for the proNGF pro domain) were recorded per 96 well.
The images were analyzed with the Cellomics assay algorithm NeuronalProfiling.V3.5.

reduction of GSTpro signal without permeabilization (sortilin [2]; cells expressing sortilin below the set threshold): less than half reduced
signal and assay window, GSTpro compared to proNGF (in words) (sortilin [4]): substantially larger compared to proNGF
signal and assay window, GSTpro compared to proNGF (in words) (sortilin [4]; listed as GST-pro): larger signal and assay window
B1: GSTpro: fusion of Glutathione S-transferase (GST) merged at the C-terminal of GST to the pro part (19–121) of human proNGF (protein)
chain: EPHSESNVPAGHTIPQAHWTKLQHSLDTALRRARSAPAAAIAARVAGQTRNITVDPRLFKKRRLRSPRVLFSTQPPREAADTQDLDFEVGGAAPFNRTHRSKR
modifications: left off: GST, N-terminal, kept
notes: fusion of Glutathione S-transferase (GST) merged at the C-terminal of GST to the pro part (19–121) of human proNGF
GSTpro signal in internalization-mutant versus wt sortilin cells (in words) [1]: stronger GSTpro signal than wild type sortilin; also recorded: slightly higher signal
reduction of GSTpro signal without permeabilization (sortilin [2]; sortilin-positive cells): almost fourfold reduced; also recorded: much lower GSTpro signal
Kd (sortilin [3]): 8 nM
GSTpro signal, sortilin-positive versus sortilin-negative (or control-transfected) cells (in words) (sortilin [4]; Figs. 3, 4b, 6, 7, 8): highly enhanced GSTpro uptake or binding; also recorded: several fold higher GSTpro signal in sortilin-positive cells
